± gives the standard deviation of the averaged measurements.
system: ATP; test: switch fluorescence ratio, 500 uM ATP over buffer (Cy3 cluster intensity, sum of 5 cycles each) (fold (ratio)); higher = stronger signal-on switching upon ATP binding; sequences stand for … in TCGTCGGCAGCGTCAGATGTGTATAAGAGACAGTTTTTTTTTTTTTTTTTTTTTTTTT…TC; settings: aptamer strand: ATP DNA aptamer (quencher-CACCTGGGGGAGTATTGCGGAGGAAGG + anchor), 100 nM annealed; ATP concentration: 500 uM
How it was run: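 Clusters carrying Cy3-labelled switching strands on a modified Illumina MiSeq flow-cell were annealed to 100 nM quencher-labelled ATP aptamer and imaged in selection buffer. They were imaged again after 15 min with 500 uM ATP at 22 °C, over five buffer/ATP cycles with NaOH stripping and re-annealing in between. For each cluster, the fluorescence ratio is the summed Cy3 intensity of the target cycles divided by that of the buffer cycles, averaged per switch-domain sequence. Clusters outside 100-1000 RFU were left out.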
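Also: ATP exposure 15 min at 22 °C before imaging.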

Sequence | switch fluorescence ratio
CGACTAGGAA | 1.04 ± 0.023
TTCTAGTCGT | 0.971 ± 0.019
CAGTGTCGGG | 0.9984 ± 0.0085
TCAGTTTTCC | 1.02 ± 0.018
TAAGATTTTA | 1 ± 0.042
GGGGGAGAGA | 1.03 ± 0.064
GGTCGGTATT | 1.08 ± 0.12
AAGAAGAAAT | 1.04 ± 0.066
ATGGGCACA | 0.99899 ± 0.00092
TTGTTTTCCA | 0.987 ± 0.018
GGAAATCGGG | 0.989 ± 0.027
ACGTGGGGGA | 1.02 ± 0.051
CAAGCTTTTT | 0.979 ± 0.032
CTAAATTTAG | 0.995 ± 0.023
GGAGTTCGGG | 0.978 ± 0.021
ATCTAACGGC | 1.01 ± 0.0079
CGGGGTTGCT | 1.03 ± 0.054
CGGATGTTAC | 1.171 ± 0.0093
TTGACTGGAA | 1.02 ± 0.011
CATCCTTGGA | 0.996 ± 0.012
TCTAGGGCAA | 1.66 ± 0.086
TGGTTGAACG | 0.996 ± 0.019
AGAATAGGGG | 0.9762 ± 0.0083

Sequence | switch fluorescence ratio
TTTTGGTCTT | 1 ± 0.028
TTTTTGACCT | 1.38 ± 0.24
TGGTTTGTGT | 0.981 ± 0.018
TTATTACCTA | 1.06 ± 0.049
TCATAAGTGC | 0.977 ± 0.011
CTATCAACCG | 1.04 ± 0.022
CGGGATTATC | 1.01 ± 0.021
ATACAGGTCT | 1.03 ± 0.011
GGGGTTAAGT | 0.98 ± 0.014
AGTTTACTGT | 1.02 ± 0.072
AAGGCTTTCT | 1.02 ± 0.032
CGTCTTAAAG | 1 ± 0.036
TATTGCTTT | 0.977 ± 0.012
CTGAATTGGT | 0.975 ± 0.012
AAATACCGGC | 1.1 ± 0.16
TTTGAAGGAC | 0.992 ± 0.044
AGGGCTGCTA | 0.996 ± 0.046
GGATTATTTG | 0.97982 ± 7.7e-05
TCTCAGTAGG | 1.02 ± 0.013
TTTCTAATAT | 1 ± 0.014
ACTTTGTACG | 1.06 ± 0.011
AAATAGGCAT | 1.0235 ± 0.00029
GGACTGGGGA | 1.0045 ± 0.00084

Sequence | switch fluorescence ratio
TTACGGTGGT | 1.03 ± 0.036
AGAAGTACGC | 1.17 ± 0.1
GGGTTGATCG | 0.9875 ± 0.0046
CCAAAAGGAT | 1.01 ± 0.012
TTGCATTGGA | 0.9885 ± 0.0079
TGGGTACTGG | 1.02 ± 0.018
AATGACTAAT | 1.01 ± 0.017
TTTGTGACTA | 1.01 ± 0.049
TAGGGCCAAC | 1.016 ± 0.0092
TGGGGGAGCC | 1.03 ± 0.041
GGGGGGGATA | 1 ± 0.038
AAACCGGGGT | 1.66 ± 0.94
TGCTTCTCCA | 1.03 ± 0.036
GGGGAAAGTT | 0.988 ± 0.043
TGGATTGGAT | 1.03 ± 0.035
TTGATTTTAA | 1 ± 0.014
TCACACGGAG | 1.043 ± 0.0056
AAGTTAGGTC | 0.969 ± 0.047
CTACGCCTGG | 1.66 ± 0.044
GCAAGGTAAA | 1.01 ± 0.037
CTATGTGGAG | 0.975 ± 0.033
AAGACGTAGG | 1.06 ± 0.034
GGGGGAAGCT | 1.03 ± 0.05

Sequence | switch fluorescence ratio
TATAGGGGGT | 1.01 ± 0.036
GCGTTTTGAG | 0.981 ± 0.025
TAGGGTTGTG | 0.9838 ± 0.0033
GTGTGATCCG | 1.01 ± 0.049
TTCTGCGCCC | 2.52 ± 2
TTTTTATATC | 0.99 ± 0.028
GTTTTTTATA | 0.995 ± 0.011
GGCCAAGGAA | 0.9812 ± 0.0074
GATCCCGCGG | 1.049 ± 0.0088
GTGGGGGTTT | 1.05 ± 0.14
GTGGTATTAT | 1.01 ± 0.021
GTGGCTTTAT | 1.01 ± 0.013
ACCATTAGCA | 0.998 ± 0.022
TCACAATTTA | 0.9774 ± 0.0044
TACGGGTTCG | 0.99 ± 0.028
TTTGGGCACG | 1.05 ± 0.017
GGCAGTTTTG | 1.01 ± 0.0062
CAAGTGGGGG | 1.02 ± 0.038
TTATTATAGT | 1 ± 0.015
GCTGTTGAAT | 1.02 ± 0.041
GCGAATTAGG | 0.9719 ± 0.0032
CGAATCCCCA | 1.07 ± 0.032
ATCGACATAT | 1.043 ± 0.0031

Sequence | switch fluorescence ratio
AGGTACGATT | 1.02 ± 0.034
AGAGAAAGTA | 0.98799 ± 0.0004
GCCAAAGATT | 1 ± 0.029
AGGAGGGGG | 0.989 ± 0.049
GAGATTTGGA | 1.03 ± 0.029
GTGGGGGGCC | 0.966 ± 0.028
ACATCGGGAT | 1.017 ± 0.0012
ACTTTTTGAG | 0.996 ± 0.032
TTTCTAGGTC | 1.015 ± 0.0048
TGAATGGGGG | 1.01 ± 0.045
TTTTGCTGGG | 1.03 ± 0.11
GAGAGCTATC | 0.9848 ± 0.0024
ATATGAAGGT | 0.9893 ± 0.0047
GTTTAAAAAG | 0.9958 ± 0.0034
CTCTGAGGGA | 1.01 ± 0.027
TAATGAATAG | 1.01 ± 0.042
TATCTGGGGC | 1.04 ± 0.025
GGGACATTTT | 1.026 ± 0.0086
GGGTGCCGGG | 0.911 ± 0.12
AGCCAGGATG | 1.104 ± 0.0047
ACAGTAGTAG | 1.07 ± 0.026
GGCTTTTTTG | 0.9954 ± 0.0081
GGGGGCTCAG | 0.9659 ± 0.0052

Sequence | switch fluorescence ratio
GCTATAGTAT | 0.998 ± 0.0056
AACCGCTATA | 3.11 ± 1
CCGAGGAGAG | 1.1 ± 0.037
CTAGGTGACG | 1.004 ± 0.0075
GGATTCGATT | 0.987 ± 0.03
TTCGACTAGC | 1.03 ± 0.03
ATGGTTTCGT | 0.996 ± 0.037
GATGCCTGGA | 1.02 ± 0.086
TTTAAGTCTA | 0.992 ± 0.039
TGCTAACAGG | 1.022 ± 0.0078
CGAGTCCCAC | 1 ± 0.12
TTTTGTTAGT | 0.997 ± 0.022
GTGGTTTTCG | 1.03 ± 0.062
ACATAGGTGA | 1.1 ± 0.069
TATAAATTGC | 1.01 ± 0.016
CATGTAGCCG | 1.01 ± 0.061
TACGCTTCAT | 1.02 ± 0.011
TACCAAACGG | 2.23 ± 1.4
GTATTTTTGG | 0.972 ± 0.03
TGTTAAAAAC | 1.082 ± 0.0085
AATTATTGTA | 0.979 ± 0.049
ATGCGGTGTG | 0.978 ± 0.04
TTTTTCAGTT | 1 ± 0.033

Sequence | switch fluorescence ratio
TCAATGAGGG | 1.01 ± 0.03
GGGTAGAGGA | 0.99 ± 0.03
TTGTATAGGG | 1 ± 0.025
GCATCAAGTG | 0.988 ± 0.034
TATAATCTGT | 1.01 ± 0.017
TTAGTTGGGA | 0.9828 ± 0.0087
GATGGGAATG | 1.01 ± 0.013
TGTGTGCGCG | 1.02 ± 0.043
GCATGTACTC | 3.36 ± 0.63
TTTTGACAGG | 1.03 ± 0.011
TTTAAAGGCA | 0.991 ± 0.011
AAACTTTTTC | 1.02 ± 0.065
GGGGGGATAG | 1 ± 0.031
ATGGGTTTGG | 1.01 ± 0.036
GCATAATGAT | 1 ± 0.022
GCAGCTGGTG | 1.098 ± 0.00094
GATTGTTTGT | 1.03 ± 0.067
AATGTTGGGA | 0.995 ± 0.015
GGGTTAATTC | 1.03 ± 0.088

From the supplement of paper PMC10126150
